Test results reported in patent publication US9724426B2, “Agents, uses and methods” (AFFINICON APS, priority 2009, dated 2017).

Target: T1, CD163 receptor on surface of human macrophages (Homo sapiens, UniProt Q86VB7)
T1 construct: endogenous in cells; host or cells: human peripheral blood monocytes, monocyte-derived macrophages, blood dendritic cells
Experiment: Binding and uptake of fluorescently labeled CD163 antibodies in monocyte-derived macrophages
Assay type: cell-based
Details: 0 min; macrophages stimulated with 200 nM dexamethasone
Procedure: Monocytes were isolated from PBMC by negative selection using magnetic beads from Dynal (Dynabeads® MyPure™ Monocyte Kit 2; Invitrogen A/S, Taastrup, Denmark) according to instructions provided by the manufacturer. Monocyte preparations were more than 95% (CD14^+) pure determined by flow cytometry. The isolated cells were washed twice with phosphate-buffered saline. Monocyte-derived macrophages (MDMs) were prepared by cell culture of monocytes (approximately 1×10^7 cells) for 4 days in 5% CO2 and 37° C. in RPMI 1640 media (RPMI 1640+25 mM HEPES+I-glutamine) (Invitrogen Corporation, Carlsbad, Calif., USA) with 20% FCS containing 100 ng/ml of M-CSF. MDMs were then detached from the flask by incubation with cell dissociation buffer (Invitrogen A/S, Taastrup, Denmark) for 30 minutes at 40 °C, then flushed, and scraped. […]
MDMs or CHO cells were washed with 4° C. cold D-PBS, pH 7.4, containing 1% BSA in Lab-Tek™ Chamber Slides (Thermo Fisher Scientific, Roskilde, Denmark). […] Fluorescence was visualized using a Zeiss Axiovert 200M microscope (Carl Zeiss GmbH, Jena, Germany) with an ×100 oil-immersion objective. […] Alternatively, immunostained cells were analyzed by confocal immunofluorescence microscopy using a Zeiss LSM-510 confocal microscope (Carl Zeiss GmbH, Jena, Germany). […]

T1 sequence (Q86VB7 42-1156): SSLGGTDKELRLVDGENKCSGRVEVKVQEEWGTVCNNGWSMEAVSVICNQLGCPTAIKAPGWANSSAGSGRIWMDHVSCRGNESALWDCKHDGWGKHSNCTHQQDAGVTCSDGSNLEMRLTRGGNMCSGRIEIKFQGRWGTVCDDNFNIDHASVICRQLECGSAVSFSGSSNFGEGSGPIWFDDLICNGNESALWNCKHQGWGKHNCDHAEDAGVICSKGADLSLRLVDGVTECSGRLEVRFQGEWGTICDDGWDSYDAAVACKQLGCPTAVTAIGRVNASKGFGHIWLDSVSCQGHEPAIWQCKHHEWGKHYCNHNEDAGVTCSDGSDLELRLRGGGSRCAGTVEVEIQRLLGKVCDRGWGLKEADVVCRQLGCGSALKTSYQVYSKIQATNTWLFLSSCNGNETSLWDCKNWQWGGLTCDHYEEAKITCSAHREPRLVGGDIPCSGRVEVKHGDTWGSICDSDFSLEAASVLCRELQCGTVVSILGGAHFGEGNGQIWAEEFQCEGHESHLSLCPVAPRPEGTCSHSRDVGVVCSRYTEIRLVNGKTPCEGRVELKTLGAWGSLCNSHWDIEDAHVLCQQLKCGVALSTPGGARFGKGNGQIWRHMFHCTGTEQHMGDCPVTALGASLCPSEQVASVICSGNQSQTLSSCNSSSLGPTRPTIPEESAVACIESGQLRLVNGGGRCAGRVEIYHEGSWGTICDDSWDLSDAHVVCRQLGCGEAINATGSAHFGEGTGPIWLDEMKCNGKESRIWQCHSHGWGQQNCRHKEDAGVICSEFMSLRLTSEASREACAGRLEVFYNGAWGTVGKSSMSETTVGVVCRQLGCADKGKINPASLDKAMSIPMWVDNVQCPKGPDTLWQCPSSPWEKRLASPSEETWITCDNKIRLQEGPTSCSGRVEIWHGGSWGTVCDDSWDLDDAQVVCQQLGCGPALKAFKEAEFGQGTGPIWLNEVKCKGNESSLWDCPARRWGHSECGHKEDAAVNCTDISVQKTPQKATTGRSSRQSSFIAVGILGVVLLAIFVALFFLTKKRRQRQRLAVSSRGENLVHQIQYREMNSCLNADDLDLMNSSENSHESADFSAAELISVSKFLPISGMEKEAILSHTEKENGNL

B1: Mac2-158: murine anti-human CD163 mAb binding SRCR domain 1; VH SEQ ID NO:20, VL SEQ ID NO:21; IQ Products (antibody, V domains shown)
VH: DVQLQESGPGLVKPSQSLSLTCTVTGYSITSDYAWNWIRQFPGNKLEWMGYITYSGITNYNPSLKSQISITRDTSKNQFFLQLNSVTTEDTATYYCVSGTYYFDYWGQGTTLTVSS
VL: SVVMTQTPKSLLISIGDRVTITCKASQSVSSDVAWFQQKPGQSPKPLIYYASNRYTGVPDRFTGSGYGTDFTFTISSVQAEDLAVYFCGQDYTSPRTFGGGTKLEIKRA
modifications: Mac2-158 VH sequence; Mac2-158 VL sequence
notes: IQ Products
- cell surface staining (immunofluorescence): pronounced cell surface staining
